54 sequences from article PMC3334620 can be followed below.

The first series has as its target T1, Stp1 (Saccharomyces cerevisiae) (UniProt Q00947).
T1 sequence: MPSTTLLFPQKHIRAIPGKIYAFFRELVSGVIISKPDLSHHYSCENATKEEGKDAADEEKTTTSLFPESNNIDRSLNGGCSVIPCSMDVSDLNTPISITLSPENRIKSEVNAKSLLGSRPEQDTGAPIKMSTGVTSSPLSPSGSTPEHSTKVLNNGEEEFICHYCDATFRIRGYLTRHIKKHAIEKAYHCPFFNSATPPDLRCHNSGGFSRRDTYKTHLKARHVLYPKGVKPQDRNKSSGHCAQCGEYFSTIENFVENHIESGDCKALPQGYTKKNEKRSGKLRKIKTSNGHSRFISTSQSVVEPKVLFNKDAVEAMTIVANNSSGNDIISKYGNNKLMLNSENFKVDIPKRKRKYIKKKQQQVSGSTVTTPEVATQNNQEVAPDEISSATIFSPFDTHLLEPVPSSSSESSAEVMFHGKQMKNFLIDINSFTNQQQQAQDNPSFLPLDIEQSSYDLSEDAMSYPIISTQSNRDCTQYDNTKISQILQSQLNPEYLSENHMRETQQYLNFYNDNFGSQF
As to conditions: 200 nM.
In turn, “ACACGGCA (double strand) [8-mer ACACGGCA]” gave a binding signal (PBM E-score (-0.5 to 0.5)) of 0.49.

Turning to “ACGGCACT (double strand) [8-mer ACGGCACT]”, the binding signal (PBM E-score (-0.5 to 0.5)) was 0.489. Still for that read-out and setting: as for “ACGGCGCC (double strand) [8-mer ACGGCGCC]”, the figure is 0.49. Same read-out and setting: next, “ACGGCGCG (double strand) [8-mer ACGGCGCG]”: 0.492; “ATACGGCG (double strand) [8-mer ATACGGCG]”: 0.49; “CACGGCAC (double strand) [8-mer CACGGCAC]”: 0.491. On the same count and under the same terms, next, “CACGGCGC (double strand) [8-mer CACGGCGC]”: 0.493; “CGCACGGC (double strand) [8-mer CGCACGGC]”: 0.488. Regarding “CGCCGTGC (double strand) [8-mer CGCCGTGC]”, the binding signal (PBM E-score (-0.5 to 0.5)) was 0.493. On the same count and under the same terms, as for “CGCGGCAC (double strand) [8-mer CGCGGCAC]”, the figure is 0.49. Still for that read-out and setting: next, “CGCGGCGC (double strand) [8-mer CGCGGCGC]”: 0.492; “GCACGGCA (double strand) [8-mer GCACGGCA]”: 0.49.

“GCGCCGCA (double strand) [8-mer GCGCCGCA]”: the binding signal (PBM E-score (-0.5 to 0.5)) was determined as 0.491.

In turn, “GCGCCGTA (double strand) [8-mer GCGCCGTA]” had a binding signal (PBM E-score (-0.5 to 0.5)) of 0.495. Still for that read-out and setting: next, “GTGCCGTA (double strand) [8-mer GTGCCGTA]”: 0.493.

A further series addresses T2, Sko1 (Saccharomyces cerevisiae) (UniProt Q02100).
T2 sequence: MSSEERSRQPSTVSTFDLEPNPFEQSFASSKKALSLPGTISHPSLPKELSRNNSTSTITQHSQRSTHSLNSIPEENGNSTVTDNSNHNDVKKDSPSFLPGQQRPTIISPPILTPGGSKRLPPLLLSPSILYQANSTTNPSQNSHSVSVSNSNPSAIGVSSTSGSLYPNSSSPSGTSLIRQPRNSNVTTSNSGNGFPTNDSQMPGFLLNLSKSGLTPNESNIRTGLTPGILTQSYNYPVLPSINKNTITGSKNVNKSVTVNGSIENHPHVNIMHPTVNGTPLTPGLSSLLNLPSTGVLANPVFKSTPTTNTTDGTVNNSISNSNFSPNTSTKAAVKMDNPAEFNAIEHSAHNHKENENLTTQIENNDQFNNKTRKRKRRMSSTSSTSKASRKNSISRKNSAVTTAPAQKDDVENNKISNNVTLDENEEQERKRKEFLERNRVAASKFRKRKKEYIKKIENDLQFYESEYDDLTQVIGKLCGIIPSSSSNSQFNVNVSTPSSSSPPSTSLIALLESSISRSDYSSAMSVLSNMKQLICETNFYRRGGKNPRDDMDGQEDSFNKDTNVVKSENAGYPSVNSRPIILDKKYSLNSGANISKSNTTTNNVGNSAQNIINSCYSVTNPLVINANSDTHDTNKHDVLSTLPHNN
As to conditions: 200 nM.
As to “AATGACGT (double strand) [8-mer AATGACGT]”, the binding signal (PBM E-score (-0.5 to 0.5)) turned out to be 0.498. Still for that read-out and setting: as for “ACGTCATA (double strand) [8-mer ACGTCATA]”, the figure is 0.498.

On to “ACGTCATC (double strand) [8-mer ACGTCATC]”, for which the binding signal (PBM E-score (-0.5 to 0.5)) amounted to 0.498. Same read-out and setting: as for “ACGTCATG (double strand) [8-mer ACGTCATG]”, the figure is 0.497. The same measure, in the same setting: next, “ATACGTCA (double strand) [8-mer ATACGTCA]”: 0.494. Take “ATGACGTA (double strand) [8-mer ATGACGTA]”: the binding signal (PBM E-score (-0.5 to 0.5)) was found to be 0.5. The same measure, in the same setting: next, “ATGACGTC (double strand) [8-mer ATGACGTC]”: 0.497.

The sequence “ATGACGTG (double strand) [8-mer ATGACGTG]” registered a binding signal (PBM E-score (-0.5 to 0.5)) of 0.496. Same read-out and setting: next, “CTACGTCA (double strand) [8-mer CTACGTCA]”: 0.493; “GTGACGTA (double strand) [8-mer GTGACGTA]”: 0.494. Same read-out and setting: as for “TGACGTCA (double strand) [8-mer TGACGTCA]”, the figure is 0.499.

A further series deals with T3, Stb5 (Saccharomyces cerevisiae) (UniProt P38699).
T3 sequence: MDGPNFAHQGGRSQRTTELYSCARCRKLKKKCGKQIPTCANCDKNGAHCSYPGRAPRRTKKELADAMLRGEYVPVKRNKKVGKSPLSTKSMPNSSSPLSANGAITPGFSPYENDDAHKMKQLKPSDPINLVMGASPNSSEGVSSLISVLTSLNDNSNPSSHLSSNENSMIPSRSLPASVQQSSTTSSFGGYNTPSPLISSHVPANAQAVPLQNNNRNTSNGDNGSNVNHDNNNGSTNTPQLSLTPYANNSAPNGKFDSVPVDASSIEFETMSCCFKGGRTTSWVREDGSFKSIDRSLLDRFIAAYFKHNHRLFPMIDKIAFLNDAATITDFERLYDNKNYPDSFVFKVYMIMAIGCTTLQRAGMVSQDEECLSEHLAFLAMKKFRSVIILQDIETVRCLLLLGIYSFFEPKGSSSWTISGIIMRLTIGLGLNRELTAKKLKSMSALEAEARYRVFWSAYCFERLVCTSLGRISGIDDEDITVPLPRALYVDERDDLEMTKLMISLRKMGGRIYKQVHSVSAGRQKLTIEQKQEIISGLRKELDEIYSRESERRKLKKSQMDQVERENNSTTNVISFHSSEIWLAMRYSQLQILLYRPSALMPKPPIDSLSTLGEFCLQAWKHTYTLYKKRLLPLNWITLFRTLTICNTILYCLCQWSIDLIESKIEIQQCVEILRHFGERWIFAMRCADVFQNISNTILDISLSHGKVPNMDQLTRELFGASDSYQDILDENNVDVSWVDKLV
The conditions noted are these: 200 nM.
With “AAACACCG (double strand) [8-mer AAACACCG]”, the binding signal (PBM E-score (-0.5 to 0.5)) was determined as 0.491.

The sequence “AACACCGC (double strand) [8-mer AACACCGC]” returned a binding signal (PBM E-score (-0.5 to 0.5)) of 0.48. In turn, “AACCCCGC (double strand) [8-mer AACCCCGC]” displayed a binding signal (PBM E-score (-0.5 to 0.5)) of 0.484.

Consider “CGGACTTA (double strand) [8-mer CGGACTTA]”, for which the binding signal (PBM E-score (-0.5 to 0.5)) was 0.483. With “CGGAGATA (double strand) [8-mer CGGAGATA]”, the binding signal (PBM E-score (-0.5 to 0.5)) turned out to be 0.48. Still for that read-out and setting: as for “CGGAGTTA (double strand) [8-mer CGGAGTTA]”, the figure is 0.487.

For the sequence “CGGCACTA (double strand) [8-mer CGGCACTA]”, the binding signal (PBM E-score (-0.5 to 0.5)) turned out to be 0.481. Same read-out and setting: as for “CGGCATTA (double strand) [8-mer CGGCATTA]”, the figure is 0.489; as for “CGGCCTTA (double strand) [8-mer CGGCCTTA]”, 0.481; as for “CGGCGTTA (double strand) [8-mer CGGCGTTA]”, 0.49. “CGGGGTTA (double strand) [8-mer CGGGGTTA]” registered a binding signal (PBM E-score (-0.5 to 0.5)) of 0.495. Same read-out and setting: as for “CGGTCTTA (double strand) [8-mer CGGTCTTA]”, the figure is 0.48; as for “CGGTGATA (double strand) [8-mer CGGTGATA]”, 0.488; as for “CGGTGCTA (double strand) [8-mer CGGTGCTA]”, 0.488. Turning to “CGGTGTTA (double strand) [8-mer CGGTGTTA]”, the binding signal (PBM E-score (-0.5 to 0.5)) was 0.496.

A further series has as its target T4, Sut1 (Saccharomyces cerevisiae) (UniProt P53032).
T4 sequence: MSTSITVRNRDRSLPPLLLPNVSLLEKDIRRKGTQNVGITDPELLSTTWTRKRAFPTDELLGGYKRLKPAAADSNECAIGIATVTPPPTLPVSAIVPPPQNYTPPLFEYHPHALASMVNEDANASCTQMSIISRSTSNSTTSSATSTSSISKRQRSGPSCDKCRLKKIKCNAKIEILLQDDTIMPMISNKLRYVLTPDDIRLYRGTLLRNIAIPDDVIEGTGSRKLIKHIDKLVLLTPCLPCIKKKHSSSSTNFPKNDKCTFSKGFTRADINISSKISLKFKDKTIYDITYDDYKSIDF
As to conditions: 200 nM.
In turn, “AAACTCCG (double strand) [8-mer AAACTCCG]” registered a binding signal (PBM E-score (-0.5 to 0.5)) of 0.498. The same measure, in the same setting: next, “AAAGTCCG (double strand) [8-mer AAAGTCCG]”: 0.496; “AACTCCGA (double strand) [8-mer AACTCCGA]”: 0.499; “AACTCCGG (double strand) [8-mer AACTCCGG]”: 0.499. Still for that read-out and setting: as for “AACTCCGT (double strand) [8-mer AACTCCGT]”, the figure is 0.496. Consider “AAGTCCGA (double strand) [8-mer AAGTCCGA]”, for which the binding signal (PBM E-score (-0.5 to 0.5)) stood at 0.498. The same measure, in the same setting: as for “AAGTCCGG (double strand) [8-mer AAGTCCGG]”, the figure is 0.497; as for “ACTCCGAA (double strand) [8-mer ACTCCGAA]”, 0.495; as for “ACTCCGAG (double strand) [8-mer ACTCCGAG]”, 0.494. For “CAACTCCG (double strand) [8-mer CAACTCCG]”, the binding signal (PBM E-score (-0.5 to 0.5)) was found to be 0.497. As to “CAAGTCCG (double strand) [8-mer CAAGTCCG]”, the binding signal (PBM E-score (-0.5 to 0.5)) is 0.492. For “CGGACTTC (double strand) [8-mer CGGACTTC]”, the binding signal (PBM E-score (-0.5 to 0.5)) stood at 0.496.

“CGGAGTTA (double strand) [8-mer CGGAGTTA]” registered a binding signal (PBM E-score (-0.5 to 0.5)) of 0.495. Sequence “CGGAGTTC (double strand) [8-mer CGGAGTTC]” yielded a binding signal (PBM E-score (-0.5 to 0.5)) of 0.498.
